From the supplement of paper PMC5998384

What was measured:
HeLa Kyoto [1] = assay: solubility in G1/S (NP-40 vs SDS abundance) (log2 ratio); higher = more soluble; details: cell cycle stage: G1/S
HeLa Kyoto [2] = assay: solubility change mitosis vs G1/S (difference of NP-40 vs SDS log2 ratios) (log2 ratio difference); higher = more soluble in mitosis
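Throughout, for solubility change mitosis vs G1/S (difference of NP-40 vs SDS log2 ratios): synchronized HeLa Kyoto cells (double thymidine block for G1/S, nocodazole release for mitosis), protein amounts in NP-40 versus SDS lysates quantified by mass spectrometry, three biological replicates.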
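Throughout, for solubility in G1/S (NP-40 vs SDS abundance): HeLa Kyoto cells arrested at G1/S by double thymidine block, proteins quantified by TMT10plex mass spectrometry in mild NP-40 versus SDS extracts, three biological replicates.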

CLK4, sequence (chain, as listed by the source): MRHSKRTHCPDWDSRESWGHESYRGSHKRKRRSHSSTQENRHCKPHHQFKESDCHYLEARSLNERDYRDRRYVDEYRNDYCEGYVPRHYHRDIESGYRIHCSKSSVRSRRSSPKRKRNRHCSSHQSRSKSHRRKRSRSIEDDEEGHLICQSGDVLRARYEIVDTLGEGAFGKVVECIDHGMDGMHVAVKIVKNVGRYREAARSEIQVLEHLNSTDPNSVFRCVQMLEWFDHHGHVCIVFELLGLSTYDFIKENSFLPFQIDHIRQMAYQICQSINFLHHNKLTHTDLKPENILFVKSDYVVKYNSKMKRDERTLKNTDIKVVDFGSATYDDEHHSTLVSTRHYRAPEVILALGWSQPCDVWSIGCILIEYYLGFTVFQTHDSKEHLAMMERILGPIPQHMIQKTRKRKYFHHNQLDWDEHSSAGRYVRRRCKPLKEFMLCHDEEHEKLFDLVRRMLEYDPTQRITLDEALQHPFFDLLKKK

Row | Substance | solubility in G1/S (log2) (HeLa Kyoto [1]) | solubility change mitosis (log2) (HeLa Kyoto [2])
1 | MAAVGPPQQQVRMAHQQVWAALEVALRVPCLYIIDAIFNSYPDSSQSRFCIVLQIFLRLFGVFASSIVLILSQRSLFKFYTYSSAFLLAATSVLVNYYASLHIDFYGAYNTSAFGIELLPRKGPSLWMALIVLQLTFGIGYVTLLQIHSIYSQLIILDLLVPVIGLITELPLHIRETLLFTSSLILTLNTVFVLAVKLKWFYYSTRYVYLLVRHMYRIYGLQLLMEDTWKRIRFPDILRVFWLTRVTAQATVLMYILRMANETDSFFISWDDFWDLICNLIISGCDSTLTVLGMSAVISSVAHYLGLGILAFIGSTEEDDRRLGFVAPVLFFILALQTGLSGLRPEERLIRLSRNMCLLLTAVLHFIHGMTDPVLMSLSASHVSSFRRHFPVLFVSACLFILPVLLSYVLWHHYALNTWLFAVTAFCVELCLKVIVSLTVYTLFMIDGYYNVLWEKLDDYVYYVRSTGSIIEFIFGVVMFGNGAYTMMFESGSKIRAFMMCLHAYFNIYLQAKNGWKTFMNRRTAVKKINSLPEIKGSRLQEINDVCAICYHEFTTSARITPCNHYFHALCLRKWLYIQDTCPMCHQKVYIEDDIKDNSNVSNNNGFIPPNETPEEAVREAAAESDRELNEDDSTDCDDDVQRERNGVIQHTGAAAEEFNDDTD [RNF139] | -0.206 | -0.107
2 | MGAVTDDEVIRKRLLIDGDGAGDDRRINLLVKSFIKWCNSGSQEEGYSQYQRMLSTLSQCEFSMGKTLLVYDMNLREMENYEKIYKEIECSIAGAHEKIAECKKQILQAKRIRKNRQEYDALAKVIQHHPDRHETLKELEALGKELEHLSHIKESVEDKLELRRKQFHVLLSTIHELQQTLENDEKLSEVEEAQEASMETDPKP [THOC7] | -0.022 | 0.387
3 | MLRVVSWNINGIRRPLQGVANQEPSNCAAVAVGRILDELDADIVCLQETKVTRDALTEPLAIVEGYNSYFSFSRNRSGYSGVATFCKDNATPVAAEEGLSGLFATQNGDVGCYGNMDEFTQEELRALDSEGRALLTQHKIRTWEGKEKTLTLINVYCPHADPGRPERLVFKMRFYRLLQIRAEALLAAGSHVIILGDLNTAHRPIDHWDAVNLECFEEDPGRKWMDSLLSNLGCQSASHVGPFIDSYRCFQPKQEGAFTCWSAVTGARHLNYGSRLDYVLGDRTLVIDTFQASFLLPEVMGSDHCPVGAVLSVSSVPAKQCPPLCTRFLPEFAGTQLKILRFLVPLEQSPVLEQSTLQHNNQTRVQTCQNKAQVRSTRPQPSQVGSSRGQKNLKSYFQPSPSCPQASPDIELPSLPLMSALMTPKTPEEKAVAKVVKGQAKTSEAKDEKELRTSFWKSVLAGPLRTPLCGGHREPCVMRTVKKPGPNLGRRFYMCARPRGPPTDPSSRCNFFLWSRPS [APEX2] | 0.0896 | -0.0093
4 | EVPL | -0.382 | 0.319
5 | CLK4 | -1.44 | 0.508
6 | MTHTRRKSLPMLSSGLTGRREPLQMEDSNMEQGVEGVEPGMPESPGHLTGRRKNYPLRKRPLVPEKPKACKVLLTRLENVAGPRSADEADELPPDLPKPPSPAPSSEDPGLAQPRKRRLASLNAEALNNLLLEREDTSSLAGTRRSRAGDPHRSRDRDRATGGWSSSKKRPRLGDLGGGSRDLSPEPAPDEGPRRDGDPAPKRLASLNAAAFLKLSQERELPLRLPRAHAEVDGRSTEPPAPKAPRPKWPKVNGKNYPKAWQGASSGEAAGPPGWQGCPDEPWPSATPCGPSVQPSHQPLSKALESPLGLRPHLPLLMGGQAALKPEPGRPGEESPAPKQELHQPSFPTPQLSPLPMPGNPADYNGLCVGPELTALGSFYLYCGQEGLQCGGYSPCPMLPEGKLSPVAAPHEEGLLLAPSSVPSGTPFQHPPWGSSRYCSSEDTGVNGYSICGVLPLSVTHAGTTCGGCPYKMPFAAEGCRSLGQLEFPLPEAGHPASPAHPLLGCPVPSVPPAAEPVPHLQTPTSEPQTVARACPQSAKPPSGSKSGLRTGSSCRHTARSKAARRPSHPKQPRVQRPRPRRRRRRRTNGWVPVGAACEKAVYVLDEPEPAIRKSYQAVERHGETIRVRDTVLLKSGPRKTSTPYVAKISALWENPESGELMMSLLWYYRPEHLQGGRSPSMHEPLQNEVFASRHQDQNSVACIEEKCYVLTFAEYCRFCAMAKRRGEGLPSRKTALVPPSADYSTPPHRTVPEDTDPELVFLCRHVYDFRHGRILKNPQ [BAHD1] | -0.799 | 0.738
7 | MPPQLQETRMNRSIPVEVDESEPYPSQLLKPIPEYSPEEESEPPAPNIRNMAPNSLSAPTMLHNSSGDFSQAHSTLKLANHQRPVSRQVTCLRTQVLEDSEDSFCRRHPGLGKAFPSGCSAVSEPASESVVGALPAEHQFSFMEKRNQWLVSQLSAASPDTGHDSDKSDQSLPNASADSLGGSQEMVQRPQPHRNRAGLDLPTIDTGYDSQPQDVLGIRQLERPLPLTSVCYPQDLPRPLRSREFPQFEPQRYPACAQMLPPNLSPHAPWNYHYHCPGSPDHQVPYGHDYPRAAYQQVIQPALPGQPLPGASVRGLHPVQKVILNYPSPWDHEERPAQRDCSFPGLPRHQDQPHHQPPNRAGAPGESLECPAELRPQVPQPPSPAAVPRPPSNPPARGTLKTSNLPEELRKVFITYSMDTAMEVVKFVNFLLVNGFQTAIDIFEDRIRGIDIIKWMERYLRDKTVMIIVAISPKYKQDVEGAESQLDEDEHGLHTKYIHRMMQIEFIKQGSMNFRFIPVLFPNAKKEHVPTWLQNTHVYSWPKNKKNILLRLLREEEYVAPPRGPLPTLQVVPL [TRAF3IP2] | -0.199 | 0.168
8 | MGMKVPGKGESGPSALLTPPMSSSSRGPGAGARRRRTRCRRCRACVRTECGDCHFCRDMKKFGGPGRMKQSCLLRQCTAPVLPHTAVCLLCGEAGKEDTVEGEEEKFGLSLMECTICNEIVHPGCLKMGKAEGVINAEIPNCWECPRCTQEGRTSKDSGEGPGRRRADNGEEGASLGSGWKLTEEPPLPPPPPRRKGPLPAGPPPEDVPGPPKRKEREAGNEPPTPRKKVKGGRERHLKKVGGDACLLRGSDPGGPGLLPPRVLNPSQAFSSCHPGLPPENWEKPKPPLASAEGPAVPSPSPQREKLERFKRMCQLLERVPDTSSSSSDSDSDSDSSGTSLSEDEAPGEARNGRRPARGSSGEKENRGGRRAVRPGSGGPLLSWPLGPAPPPRPPQLERHVVRPPPRSPEPDTLPLAAGSDHPLPRAAWLRVFQHLGPRELCICMRVCRTWSRWCYDKRLWPRMDLSRRKSLTPPMLSGVVRRQPRALDLSWTGVSKKQLMWLLNRLQGLQELVLSGCSWLSVSALGSAPLPALRLLDLRWIEDVKDSQLRELLLPPPDTKPGQTESRGRLQGVAELRLAGLELTDASLRLLLRHAPQLSALDLSHCAHVGDPSVHLLTAPTSPLRETLVHLNLAGCHRLTDHCLPLFRRCPRLRRLDLRSCRQLSPEACARLAAAGPPGPFRCPEEKLLLKDS [FBXL19] | -0.317 | -0.126
9 | MRRAELAGLKTMAWVPAESAVEELMPRLLPVEPCDLTEGFDPSVPPRTPQEYLRRVQIEAAQCPDVVVAQIDPKKLKRKQSVNISLSGCQPAPEGYSPTLQWQQQQVAQFSTVRQNVNKHRSHWKSQQLDSNVTMPKSEDEEGWKKFCLGEKLCADGAVGPATNESPGIDYVQIGFPPLLSIVSRMNQATVTSVLEYLSNWFGERDFTPELGRWLYALLACLEKPLLPEAHSLIRQLARRCSEVRLLVDSKDDERVPALNLLICLVSRYFDQRDLADEPS [GEMIN2] | 0.59 | 0.437
10 | CAPN15 | -0.427 | -0.0119
11 | MTSFEDADTEETVTCLQMTVYHPGQLQCGIFQSISFNREKLPSSEVVKFGRNSNICHYTFQDKQVSRVQFSLQLFKKFNSSVLSFEIKNMSKKTNLIVDSRELGYLNKMDLPYRCMVRFGEYQFLMEKEDGESLEFFETQFILSPRSLLQENNWPPHRPIPEYGTYSLCSSQSSSPTEMDENES [TIFA] | 0.0872 | -0.224
